One assay deals with platelets. Nature of the assay: platelet aggregation in platelet-rich plasma of AMI patients during first 24 hours after r-PA or t-PA. To be noted: 3, 6, 12, 24 hours; r-PA: all agonists except ristocetin. In kind it is in vivo, human. The text has this: Twenty-three consecutive patients admitted to the emergency rooms of St. Agnes Hospital, or the Union Memorial Hospital between July and December of 1996 with a diagnosis of acute myocardial infarction were included. All patients were enrolled in the randomized trial of Reteplase (r-PA) versus accelerated Alteplase (t-PA) for the treatment of acute myocardial infarction, (GUSTO-III trial). […]
The schedule of blood drawing, sample preparation and processing were critical issues of the study design, and were monitored by an independent observer. […]
Citrate and whole blood were immediately mixed 1:9 and then centrifuged at 1200 g for 2.5 minutes in order to obtain platelet-rich plasma (PRP) which was kept at room temperature for use within 1 hour. Platelet counts were determined for each PRP sample with Coulter Counter ZM (Coulter Co., Hialeah, Fla.). […] PA was expressed as the maximum percentage of light transmittance change from the baseline using platelet-poor plasma as a reference at the end of the recording time. PA curves were recorded for 4 minutes and analyzed according to internationally established standards (see, e.g. Ruggeri, Z. M. (1994) Semin. Hemat. 31:229-239). […]

The test system of assay [1] is platelet-derived biomarkers. The experiment in a line: ASSENT-2 platelet substudy: ELISA of platelet-derived biomarkers in plasma of AMI patients. It counts as in vivo, human. As for the experimental part:
Forty-one patients with ST-segment elevation AMI enrolled in a single ASSENT-2 site (Rashid Hospital, Dubai, United Arab Emirates) were studied. The inclusion and exclusion criteria of ASSENT-2 have been previously reported ([no authors listed] (1999) Lancet 354:716-722). Briefly, patients included in the trial were between 18 and 70 years of age and were seen within 6 hours of symptom onset with >30 minutes of continuous symptoms. […] After informed consent was obtained, 7 serum samples were drawn. Samples were collected at baseline and at 30-minute intervals during a 180-minute period. Within 15 minutes of sample acquisition, plasma was separated by centrifugation at 800 g for 10 minutes, aspirated, placed in vials, and snapped frozen at −20° C.
Enzyme-linked immunosorbent assay (ELISA) was used according to standard sandwich techniques for CD 31 (sPECAM-1), sVACAM-1, sP-selectin, (R&D Systems Inc. Minneapolis, Minn.), beta-thromboglobulin, Asserachrom® (Diagnostica Stago Inc., Parsippany, N.J.), platelet factor 4 Asserachrom®, thromboxane, and prostacyclin (Cayman Chemical Co., MI). Each sample was measured in duplicate, and the overall intra-assay coefficient of variation was between 3.1%±0.4% and 7.6%±1.0%, with a plasma recovery rate between 89.7% and 98.7%.
For all comparisons, statistical analyses were done by using repeated measures ANOVA. Post hoc comparison was performed by use of the Bonferroni t-test to identify specific differences in platelet aggregation and receptor expression between patients treated with TNK and t-PA, and controls. The Mann-Whitney U test was used to analyze non-parametric data. Normally distributed data were expressed as mean±SE, and skewed data as median (range). Probability values of P<0.05 were regarded as statistically significant. Linear regression analysis was applied to normally distributed data for all study participants by using the Statview 4.1 program for analysis.
In the ASSENT-2 Platelet Substudy, 21 of the 41 patients enrolled received TNK (30-50 mg), while the remaining 20 received t-PA (40-85 mg). There were no substantial differences in baseline characteristics for the AMI patients.
(In general: An ELISA detects its analyte on a solid surface through an enzyme-linked reagent.)

We go through one molecule from patent US20030180282A1, “Method of treatment of thrombotic events” (priority 2002, published 2003).

B1: t-PA: recombinant tissue plasminogen activator, thrombolytic agent (Genentech) (protein, UniProt P00750 36-562, looked up)
Tissue-type plasminogen …: SYQVICRDEKTQMIYQQHQSWLRPVLRSNRVEYCWCNSGRAQCHSVPVKSCSEPRCFNGGTCQQALYFSDFVCQCPEGFAGKCCEIDTRATCYEDQGISYRGTWSTAESGAECTNWNSSALAQKPYSGRRPDAIRLGLGNHNYCRNPDRDSKPWCYVFKAGKYSSEFCSTPACSEGNSDCYFGNGSAYRGTHSLTESGASCLPWNSMILIGKVYTAQNPSAQALGLGKHNYCRNPDGDAKPWCHVLKNRRLTWEYCDVPSCSTCGLRQYSQPQFRIKGGLFADIASHPWQAAIFAKHRRSPGERFLCGGILISSCWILSAAHCFQERFPPHHLTVILGRTYRVVPGEEEQKFEVEKYIVHKEFDDDTYDNDIALLQLKSDSSRCAQESSVVRTVCLPPADLQLPDWTECELSGYGKHEALSPFYSERLKEAHVRLYPSSRCTSQHLLNRTVTDNMLCAGDTRSGGPQANLHDACQGDSGGPLVCLNDGRMTLVGIISWGLGCGQKDVPGVYTKVTNYLDWIRDNMRP
With B1, the “platelet aggregation, change between baseline and other time points” value in the assay on platelets is given as “no statistically significant differences”. Further, in assay [1] (180-minute period), the “P-selectin plasma concentrations, course” value is given as “increase steadily”. Also, the “plasma levels of PECAM-1” value in assay [1] (AMI patients after thrombolysis) is on record as “not in t-PA-treated patients”. In addition, the “release of substances from platelets (plasma biomarkers)” value in assay [1] (TNK 30-50 mg, t-PA 40-85 mg, 180-minute period) is listed as “decreased release”. For the same molecule, the “vascular cell adhesion molecule-1 (VCAM-1) release” value in assay [1] (after 90 minutes) is “no marked changes”. In assay [1] (to a lesser extent than TNK), the “concentrations of α-granule constituents” value is recorded as “Decreased concentrations”.
